Substrate in data set [1]: O=C1N[C@@H]2C=C[C@H]1C2
As to the kind of experiment: purified protein. The conditions noted are these: 50 mM Tris-HCl pH 7.5, 25 °C, substrate 5 to 200 mM.

Substrate in data set [2]: O=C1N[C@H]2C=C[C@@H]1C2
As to the kind of experiment: purified protein. The following applies: 50 mM Tris-HCl pH 7.5, 25 °C, substrate 5 to 200 mM.

B1: MhIHL (Mh33H4-5540) (Microbacterium hydrocarbonoxydans) (protein)
chain: MAAPRRTVVLAIDLQAGVTPGCFDEEGVLSRAAALVERARAGGVPVVWVHHDPVGVGTPEWELAAPLHRAEGEPLVRKNYRDSFADTTLRETLDELGATHLVITGAQSDFCVRTTMQRAAAEGYDVTLVSDAHTTVDTEWEGVRISGEQIVAHTNMYFSGLRYPGQEFVIATHDHVAL
As for B1, in data set [1], the Michaelis-Menten constant (Km) is 12.9 mM, the kcat was 203 s⁻¹ and the catalytic efficiency (kcat/Km) is 15800 M⁻¹ s⁻¹. Moreover, in data set [2], the Km is listed as 34.2 mM, the catalytic constant (kcat) turned out to be 19.8 s⁻¹ and the catalytic efficiency (kcat/Km) was found to be 580 M⁻¹ s⁻¹.

For the origin of these results see publication PMC5353710, “Structural insights into the γ-lactamase activity and substrate enantioselectivity of an isochorismatase-like hydrolase from Microbacterium hydrocarbonoxydans” (Scientific Reports, 2017).
